Reference: the nanobody polyreactivity screen of Harvey et al. (2022)

Assay: yeast display, Sf9 membrane polyspecificity reagent, FACS + sequencing; frameworks hold sequencing errors
Method in brief: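 Galactose-induced (36–48 hours) yeast carrying a synthetic nanobody display library were exposed to 10% biotinylated, detergent-solubilized Sf9 membrane reagent at 4 °C for 1 hour. FACS followed streptavidin microbead enrichment, using low and high (top ~1%) gates for expression (anti-HA) and reagent binding (streptavidin). Colony PCR, MiSeq 2 × 250 sequencing and CDR-length filtering followed. Labels for polyreactivity reflect the gate of origin.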

Row | Sequence | polyreactivity (PSR sort gate)
1 | QVQLVESGGGLVQAGGSLRLSCAASGRIFYYNAMGWYRQAPRKERELVASITGSGGSTYYADSVKGRFTISRDNAKNTVYLQMNSLKPEDSAVYYCAKREYLYRYYYVAKYDYWGQGTQVSVSS | low polyreactivity
2 | QVQLVESGGGLVQAGGSLRLSCAASGSTFYTYAMGWYRQAPGKEMELVAAIRSAGSTYYADSVKGRFTISRDNAKNTVYLQMNSLKPEDTAVYYCNTVARSSVGYEYWGQGTQVTVSS | high polyreactivity
3 | QVQLKESGGGLVQSGGSLRLSCAASGNIVDADIMGWYRQAPGKERELVASITDGGSTNYADSVKGRFTISRDNAKNTVYLQMNSLKPEDTAVYYCAAIAYPDIPTYFDYDSEYFYWGQGTQVTVSS | low polyreactivity
4 | QVQLQESGSGLVQAGGSLRLSCAASGAIFPAYLMGWYRQAPGKERELVAGISYGSITYCADSVKGRFNISRDNEKNTVYLQMNSLKPEDTAVYYCAVWRPGGDEYYYWGQGTQVTVSS | low polyreactivity
5 | QVQHVESGGGLVQAGGSLRLSCAASGRILIRNAMGWYRQAPGKERELVAAINRGGGSTYYADSVKGRFTISRDNAKNTVYLQMNSLKPEDTAVYYCAADRKAGYSRVDGDYWGQGTQVTVSS | low polyreactivity
6 | QVQLVESGGGLVQAGGSLRLSCAASGFTFGSYAMGWYRQAPGKERELVAAITASGGSTYYADSVKGRFTISRDNPKNTVYLQMNSLKPEDTAVYYCNKRWTYKWDDYWGQGTQVTVSS | high polyreactivity
7 | QVQLVESGGGLVHAGGRLRLSCAASGRIFYTYTMGWYSQAPGKERELVATITDGTRTNYADSVKGRFTISRDNAKITVYLQMTSLQPEDTAVYYCNAAGRWHDLYRINYDYWGQGTKVTVSS | low polyreactivity
8 | QDQLVETGGGLVQAGCSLRLSCAASGRIFVPYAMGWYRQSHGKERELVAAISGSDGSTYYADSVKGRFTISRDNAKNTVYLQMNRLKPEDTAVYYCARLLIYAPPSGSHRYYPFDYWGQGTQETVSS | low polyreactivity
9 | QVQLVESGGGLVQAGGSLRLSCAASGSIITRNAMGWYRQAPGKERELVATIRYRGGSTYYADSVKGRFTISRDNAKNTVFLQMNSLKPEDTAVYYCAARRSHPPDPRFRYGYWGQGTQVTVSS | high polyreactivity
10 | QVQLVESGGGLVHAGGSLRLSCAASGITFEGNAMGWNRQAPGTERELVAAIRSSGTSTYYADSVKGRFTFSRDNEKKTVYLQMNSLKPEDTAVYYCNRARSSSRYDYWGEGTQVTVSS | low polyreactivity
11 | QVQLVESGGGLVQAGGSLRLSCAASGFTLGTYAMGWYRQAPGKERELVAAISRGGGITYYADSVKGRFTISRDNAKNTVYLQMISLKPEDTAVYDCAADWRYWRWAFDYWGQGTQVTVSS | high polyreactivity
12 | QVQLVESGGGLVQAGGSLRLSCAASGRTFRYYAMGWYRQAPGKERELVAAIRANGGSTYYADSVKGRFTISRDNAKNIVYLQMNSLKPEDTAVYYCAALYRRYPYHYDSWGQGTQVTVSS | high polyreactivity
13 | QVQLVESGGGLVQAGGSLRLSCAASGIIFSSNAMGWYRQAPGKERELVAAITRRGGSTRYADSVKGRFTISRDNAKNTVYLQMNSLKPEDTAVYYCNALTGYPYRWGISYPMDYWGQGTQVTVSS | high polyreactivity
14 | QVQLVESGGGLVQAGGSLRLSCAASGRIFTRNTMGWYRQAPGKERELVAAITSRGGSTYYADSVKGRFTISRDNAKNTVYLQMNSLKPEDTAVYYCAADKPRSYYYWGQGTQVTVSS | high polyreactivity
15 | QVQLVESGGGLVQAGGSLRLSCAASGLIFRAYAMGWYRQAPGKERELVAAITRSGGSTYYADSVKGRFTISRDNAKNTVDLQMNSLKPEDTAVYYCATAQWVGYWDDYWGQGTQVTVSS | high polyreactivity
16 | QVQLVESGGGIVQAGGSLRLSCAASGRILGANDMGWYRQAPGTERELVAAITSGGRTYYADSVKGRFTISRDNAKNTVYLQMNCLKPEDTAVYYCAVGGWDESVGKGYDYWGQGTQVTVSS | low polyreactivity
17 | QVQLVESGGGLVQAGGSLRLSCAASGRIFQYYVMGWYRQAPGKERELVAAIRSGGTTNYADSVKGRFTISRDNAKNTVYLQMNSLKPEDTAVYYCNARYRNTFYTRRYAYWGQGTQVTVSS | high polyreactivity
18 | QVQLVESGGGLVQAGGSLRLSCAASGYILYGYAMGGYRQAPGKERELVAAISNDGSTYYADSVKGRFTISRDNAKNSVYLQMNSLKTEDTAVYYCNAREYGYFKYDYWGQGTQVTVSS | high polyreactivity
19 | QVQLVESGGGLVQAGGSLRLSSAASGRTFYDYAMGWYRQAPGKERELVAAITYSGGSTFYADSVKGRFTISRDNAKNTVYLQMNSLTPEDTAVYYCAAEVLRLGGAAEYDYCGQGTQVTVSS | low polyreactivity
20 | QVQLVESGGGLVQAGGSLRLSCAASGSIFEYYAMGWYRQAPGKERELVAAISTGGSTYYADSVKGRFTISRDNAKNTVYLQMNSLKPEDTAVYYCAAEDYHPGADTVGTGYDYWGQGTQVTVSS | low polyreactivity
21 | QVQLVESGGCIVQAGGSLRLSCAASGNIFYRNAMGWYRQAPGKERELVAAISSGGITYYADYVKGRFTISRDNAKNTVYLQMNSLKPDDTAVYYCAAYIRNCRATYEYWGPGTQVTVSS | high polyreactivity
22 | QVQLVESGGGLVQAGGSLRLSCAASGRIFRTYAMGWYRQAPGKERELVAGITWRGTSTYYADYVKGRFTISRDNAKNTVYLQLNSLKPEDTAVYYCAAEWKGYYVHDYWGQGTQVTVSS | high polyreactivity

Row | Sequence | polyreactivity (PSR sort gate)
23 | QVQLVESGGGLVQAGGSLRLSCAASGITFTSYAMGWYRQAPGKERELVASIDSDDSTNYADSVKGRFTISRDNAKNTVYLQMNSLKPEDTAVYYCAASDNDDWYYVYHYDYWGQGTQVTVSS | low polyreactivity
24 | QVQLVESGGGLVQAGGSLRLSCAASGRTFYPYAMGWYRQAPGKERELVARISASGGSTYYADSVKGRFTISRDNAKNTVYLQMNSLKPEDTAVYYCARESFWRSLMDYWGQGTQVTVSS | high polyreactivity
25 | QVQLVESLGGLVQAGGSLRLSCAASGFTFTNYAMGWYRQAPGKERELVAAINSSGSTNYADSVKGRFTISRDNAKNTVYLQMNSLKPEDTAVYYCAVDYSYWVHGFWDDYDYWGQGTQVTVSS | low polyreactivity
26 | QVQLVESGGGLVQAGGSLRLSSAATGSTSYNDMGWYRQATGKQRELGASITSSGDDTYYADSVKGRFTISRDNAKNTVYLQMNSLKPEDNAVYYCAAEDYHRHVGSYYVIDYDYWGQGTQVTVSS | low polyreactivity
27 | QVQLQESGGGLVQAGGSLRLSCAASGNIFGTKSMGWYRQAPGKGREFVAAINDGGSTNYADSVKGRFTIGRDNAKNTVYLQMNSLKPEDTAVYYCAAQWVRSDYHTYWGQGTQVTVSS | high polyreactivity
28 | QVQLVESGGGLVQAGGSLRLICAASGLIFTHNTMGWYRQAPGKERELVAAITTSGGTTYYADSVKGRFTISRDNAKNTVYLQMNSLKPEDTAFYYCAARAPWPKWGYYYWGQGTQVTVSS | high polyreactivity
29 | QVQLVESGGGLVQAGGSLRLSCAASGSIFGSYAMGWYRQAPGKERELVAAISGSGGRTYYADSVKGRFTISRDNAKNTVYFQMNSLKPEVTAVYYCAAAYPRVTYKYGYYWGLGTQVTVSS | high polyreactivity
30 | QVQLVESGGGLVQAGGSLRLSCAASGGTFENYPMGWYRQAPGKERELVAAISSGGSTNYADSVKGRFTISRDNAKNTVYLQMNSLKPEDTAVYYCARYRVWGSNGHKLFHYDYWGQGTQVTVSS | low polyreactivity
31 | QVQLVESGGGLVQAGGSLRLSSAASGYILPFYAMGWYRQAPGKERELVASISSSSGRTNYADSVKGRFRISRDYAKNTVFFEMNSLKREVTEVYYCAAAFLSYVSTQYHYDYWGQGTQVSVSS | low polyreactivity
32 | QVQLVESGGGLVQAGGSLRLSCAASGITFYRYAMGWYRQAPGKEREFVAAITWGSTYYADSVKGRFTISRDNAKNTVYLQMNSLKPEDTAVYYCNKKGYTVGATVGYWGQGTQVTVSS | low polyreactivity
33 | QVQLVESGGGLVQAGGSLRLSCAASGLIFPYYAMGWYRPAPGKERELVAAISRSGDSTYYADSVKGRFTISRDNAKNTVYLQMYSLKPEDTAVYYCAAVLSYSYVRYNYWGQGTQVNVSS | high polyreactivity
34 | QVQLVESGGGLVQAGGSLRLRCAASGIIQQSYALGWSRQAPGKERELVAAIRGSDGSTYYADSVKGRFTISRDNAKNTVYLQMNSLKPEDTAVYYCNADTRTWPLDYWGQGTQVTVSS | low polyreactivity
35 | QVQLVESCGGLVQAGGSLRLSCAASGSISYYYAMGWYRQAPGKERELVAAITRTGTTNYADSVKGRFTISRDNAKNTVYLQMNSLKPEDTAVYYCAKRSTGRLQSYNYWGQGNQVTVSS | low polyreactivity
36 | QVQLVESRGGLVQAGGSLRLSCAASGRTFLYNAMGWYRQAPGKERELVAAITDGGNTYYADSVKGRFTISRDNAKNTVYLHMKSLNPEDTAVYYCNAYVLFYTYFTRGRFDFDYWGQGTQVTVSS | low polyreactivity
37 | QDQLVESGGGFVQAGGSLRLSCAASGLTFWYYAMGWYRQATGKEVELVAANDWSGASTYYADSVKGRFTISRDNAKNTVYLQMISLQPEDTAVYYCNTVYYIGDDYWGQGTQVTVSS | high polyreactivity
38 | QVQLVESGGGLVQAGGSLRLSCAASGRIFDLNAMGWYRQAPGKERELVAAISYSGGRTFYADSVKGRFTISRDNAKNTVYLQMNSLKPEDTAVYYCNARYGKPAYQYRMDYWGQGTQVTVSS | low polyreactivity
39 | QVQLVESGGGLVQAGGSLRLSCAASGFTIYRNAMGWYRQAPGKERELVARIRRTGGRTYYADSVKGRFTISRDNAKNTVNLQMNSLKPEDTAVYYCAAYPGPGARYYYWGQGTQVTVSS | high polyreactivity
40 | QVQLVESGGVLVQSGGSLRLSCAASGLIFTWNAMGWYRQAPGKERELVAPISTGGSTSYADSVKGRFTISRDNAKNTVYLQMNSLKPEDTAVYYCARDSSIWSHGSWYDYWGQGTHVTVSS | low polyreactivity
41 | QVQLVESGGGLVQAGGSLRLSCAASGFTFYEYSMGWYRQAPGKERELVAAINWNGGRTYYADSVKGRFTISRDNAKNTVYLQMNSLKPEDTAVYYCAARVAPKTKIYRRYYWGQGTQVTVSS | high polyreactivity
42 | QVQLVESGGGLVQAGGSLRLSCAASGFTFSTYAMGWYRQAPGKEREFVAAISRGGTRTYYADSVKGRFTISRDNAKNTVYLQMTSLKPEDTAVYYCAARSKARNGYDYWGQGTQVTVSS | high polyreactivity
43 | QVQLVESGGGLVQAGGSLRLSCAASGFTFDYYAMGWYRQAPGKERELVAAITRSGTRTYYADSVKGRFTISRDNAKNTVYLQMNSLKPEDTAVYYCNVEYPKRANLSDYWGQGTQVTVSS | high polyreactivity
